Target: the molecule itself
Test: SEC; size exclusion chromatography of purified LuxS (Superdex 200 named in the purification); data not shown

B1: S-ribosylhomocysteinase (LuxS) from Streptococcus suis strain HA9801 (enzyme, UniProt A4VTE8 1-160, looked up)
chain: MKKEVTVESFELDHTIVKAPYIRLISEEVGPKGDIITNFDIRLIQPNENAMDTAGLHTIEHLLAKLIRQRIDGLIDCSPFGCRTGFHMIMWGKQDSEKIAQVIKSSLEEIAEGITWEDVPGTTIESCGNYKDHSLHSAKEWAKLILSQGISTDAFERKPI
notes: also called S. suis LuxS; SS LuxS protein; source: E. coli BL21 (DE3), pET28-luxS, purified (HisTrap column, Superdex 200 size-exclusion chromatography)
- stoichiometry N: 2

Source: article PMC4618692, “Crystal Structure and Identification of Two Key Amino Acids Involved in AI-2 Production and Biofilm Formation in Streptococcus suis LuxS” (PLoS ONE, 2015)
